Reference: patent US20080248026

Test system: T1, purified murine β-catenin protein
T1 sequence: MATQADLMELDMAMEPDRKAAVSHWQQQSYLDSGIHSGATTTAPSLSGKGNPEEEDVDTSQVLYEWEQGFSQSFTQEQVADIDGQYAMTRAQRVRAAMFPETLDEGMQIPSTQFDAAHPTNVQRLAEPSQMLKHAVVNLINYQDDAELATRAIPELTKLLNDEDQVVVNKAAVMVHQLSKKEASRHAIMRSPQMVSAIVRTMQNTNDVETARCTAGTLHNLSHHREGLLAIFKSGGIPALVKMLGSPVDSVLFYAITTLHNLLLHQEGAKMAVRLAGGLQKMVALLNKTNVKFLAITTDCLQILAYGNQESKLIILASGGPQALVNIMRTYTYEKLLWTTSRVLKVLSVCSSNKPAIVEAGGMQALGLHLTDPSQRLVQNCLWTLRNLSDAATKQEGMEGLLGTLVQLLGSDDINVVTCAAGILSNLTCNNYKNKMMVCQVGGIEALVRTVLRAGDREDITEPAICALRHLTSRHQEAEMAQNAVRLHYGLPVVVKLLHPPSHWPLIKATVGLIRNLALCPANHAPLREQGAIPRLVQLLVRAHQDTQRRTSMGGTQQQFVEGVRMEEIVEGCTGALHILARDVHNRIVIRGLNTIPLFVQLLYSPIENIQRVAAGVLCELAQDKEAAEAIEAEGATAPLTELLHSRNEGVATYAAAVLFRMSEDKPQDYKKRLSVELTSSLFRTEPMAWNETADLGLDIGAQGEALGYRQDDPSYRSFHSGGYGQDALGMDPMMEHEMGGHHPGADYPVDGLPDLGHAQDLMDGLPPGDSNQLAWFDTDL

Q: Akt (Cell Signaling) was tested. Which “in vitro phosphorylation; collision induced dissociation spectrum of the peptide spanning Ser^552 (loss of the 98 Da H3PO4 group)” value did it give?
A: indicating that this peptide (shown in FIG. 5C) is phosphorylated by Akt
